# From publication PMC10450677, “CD44 acts as a coreceptor for cell-specific enhancement of signaling and regulatory T cell induction by TGM1, a parasite TGF-β mimic” (Proceedings of the National Academy of Sciences of the …, 2023)
# T1: TGM1 full-length (D1/2/3/4/5), aa 19-422 (Heligmosomoides polygyrus, UniProt A0A2D1LW19 19-422, 125I (chloramine T) in the cross-linking assays; biotin (EZ-Link Sulfo-NHS-LC-Biotin) in the pull-downs; Alexa Fluor 488 in flow cytometry; no label named for ITC)
# T1 construct: TGF-β mimic TGM1, Heligmosomoides polygyrus, GenBank MG099712 (422-aa protein), aa 19-422, omitting the parasite-encoded signal peptide; also called TGM1-FL; FL; source: HEK293 (pSecTag2A), purified (HiTrap nickel chelating, Superdex 75 as needed)
# T1 sequence: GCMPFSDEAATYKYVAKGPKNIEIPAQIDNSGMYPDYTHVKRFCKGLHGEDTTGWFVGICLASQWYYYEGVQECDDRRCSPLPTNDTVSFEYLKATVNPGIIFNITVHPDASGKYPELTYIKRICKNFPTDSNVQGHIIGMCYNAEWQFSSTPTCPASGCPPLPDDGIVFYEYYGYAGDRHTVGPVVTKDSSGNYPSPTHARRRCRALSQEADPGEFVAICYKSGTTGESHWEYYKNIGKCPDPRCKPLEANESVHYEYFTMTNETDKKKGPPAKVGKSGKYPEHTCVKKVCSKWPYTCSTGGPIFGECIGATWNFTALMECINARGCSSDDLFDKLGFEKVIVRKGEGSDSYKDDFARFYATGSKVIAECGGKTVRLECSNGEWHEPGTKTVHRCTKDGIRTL
# T2: TGM1 D4/5 (domains 4 and 5) (Heligmosomoides polygyrus, UniProt A0A2D1LW19 1-422, 125I (chloramine T) in the cross-linking assays; biotin (EZ-Link Sulfo-NHS-LC-Biotin) in the pull-downs; Alexa Fluor 488 in flow cytometry; no label named for ITC)
# T2 construct: TGM1, Heligmosomoides polygyrus, GenBank MG099712, domains 4 and 5; D1/2/3 ends at aa 262 and the protein at aa 422; also called TGM1-D4/5-biotin; source: recombinant, purified
# T2 sequence: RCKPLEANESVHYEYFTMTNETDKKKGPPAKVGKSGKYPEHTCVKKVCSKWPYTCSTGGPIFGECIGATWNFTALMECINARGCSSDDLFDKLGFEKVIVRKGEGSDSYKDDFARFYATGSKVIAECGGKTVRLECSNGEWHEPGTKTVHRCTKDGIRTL
# B1: human CD44 hyaluronan binding domain, aa 21-169 (domain or fragment, UniProt P16070 21-169, looked up)
# chain: QIDLNITCRFAGVFHVEKNGRYSISRTEAADLCKAFNSTLPTMAQMEKALSIGFETCRYGFIEGHVVIPRIHPNSICAANNTGVYILTSNTSQYDTYCFNASAPPEEDCTSVTDLPNAFDGPITITIVNRDGTRYVQKGEYRTNPEDIY
# notes: also called hCD44; source: HEK293 (pcDNA3.1+), purified (HiTrap nickel chelating, Superdex 75 as needed)
# B2: mouse CD44 hyaluronan binding domain, aa 23-174 (domain or fragment, UniProt P15379 23-174, looked up)
# chain: QIDLNVTCRYAGVFHVEKNGRYSISRTEAADLCQAFNSTLPTMDQMKLALSKGFETCRYGFIEGNVVIPRIHPNAICAANHTGVYILVTSNTSHYDTYCFNASAPPEEDCTSVTDLPNSFDGPVTITIVNRDGTRYSKKGEYRTHQEDIDAS
# notes: also called mCD44; murine CD44; source: HEK293 (pcDNA3.1+), purified (HiTrap nickel chelating, Superdex 75 as needed)
# What was measured:
# [1] = target: T1, TGM1 full-length (D1/2/3/4/5), aa 19-422; experiment: ITC; CD44 in the syringe, TGM1 protein in the cell; 25 mM sodium phosphate, 50 mM NaCl, pH 6.0, 35 °C; 1:1 binding model, global fit of two replicates; details: both partners purified
# [2] = target: T2, TGM1 D4/5 (domains 4 and 5); experiment: as above; details: both partners purified
Binder,Kd [1] [nM],dH [1] [kcal/mol],stoichiometry N [1],Kd [2] [nM],dH [2] [kcal/mol],stoichiometry N [2]
B1,92,-10.3,1.2,140,-9.6,1.2
B2,64,-17.5,0.8,62,-19.4,1.4
